Tested on: Escherichia coli TOP10
Test: shrunken log2 fold change of peptide-encoding DNA abundance (4.5 h post-induction vs induction); higher = less antimicrobial activity (less host growth inhibition)
Conditions: time post-induction: 4.5 h; library: site-saturation at positions 5, 18, 19, 20
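Also: peptides expressed intracellularly from a pBAD plasmid library in pooled LB shake-flask culture, induced with 0.3% L-arabinose, DNA abundance read by NGS, three biological replicates, DESeq2 with apeglm shrinkage.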

Point of comparison: RRIRDRPPRLPRPRPRPSMYPRP, “shrunken log2 fold change” value -0.105. Against it:
- RRIRNRPPRLPRPRPRPDMDPRP — within 0.2 log units, -0.0127
- RRIRCRPPRLPRPRPRPQYIPRP — lower, -0.738
- RRIRRRPPRLPRPRPRPMGCPRP — within 0.2 log units, -0.0336
- RRIRIRPPRLPRPRPRPSDIPRP — lower, -0.366
- RRIRGRPPRLPRPRPRPLPWPRP — higher, 0.702
- RRIRFRPPRLPRPRPRPENNPRP — within 0.2 log units, -0.285
- RRIRLRPPRLPRPRPRPISPPRP — lower, -0.333
- RRIRERPPRLPRPRPRPCIEPRP — within 0.2 log units, -0.155
- RRIRSRPPRLPRPRPRPMCTPRP — within 0.2 log units, 0.0289
- RRIRCRPPRLPRPRPRPPREPRP — higher, 1.1
- RRIRYRPPRLPRPRPRPKLMPRP — within 0.2 log units, -0.115
- RRIRNRPPRLPRPRPRPPLMPRP — within 0.2 log units, -0.0745
- RRIRMRPPRLPRPRPRPDQEPRP — within 0.2 log units, 0.0392
- RRIRIRPPRLPRPRPRPSEFPRP — within 0.2 log units, -0.177
- RRIRQRPPRLPRPRPRPLWCPRP — within 0.2 log units, -0.24
- RRIRPRPPRLPRPRPRPDSIPRP — lower, -0.598
- RRIRRRPPRLPRPRPRPHTVPRP — within 0.2 log units, 0.0423
- RRIRTRPPRLPRPRPRPWIAPRP — within 0.2 log units, -0.0119
- RRIRRRPPRLPRPRPRPNWPPRP — higher, 0.118
- RRIRIRPPRLPRPRPRPSIIPRP — lower, -0.866
- RRIRRRPPRLPRPRPRPSKLPRP — within 0.2 log units, -0.0224
- RRIRNRPPRLPRPRPRPLIAPRP — lower, -0.305
- RRIRKRPPRLPRPRPRPGCWPRP — higher, 0.466
- RRIRHRPPRLPRPRPRPTHPPRP — higher, 0.155
- RRIRDRPPRLPRPRPRPEYGPRP — higher, 0.305
- RRIRFRPPRLPRPRPRPICWPRP — within 0.2 log units, -0.134
- RRIRIRPPRLPRPRPRPQSTPRP — lower, -0.427
- RRIRMRPPRLPRPRPRPNWYPRP — within 0.2 log units, -0.0601
- RRIRKRPPRLPRPRPRPCFLPRP — within 0.2 log units, -0.0702
- RRIRPRPPRLPRPRPRPAMHPRP — higher, 0.367
- RRIRVRPPRLPRPRPRPCQFPRP — higher, 0.143
- RRIRPRPPRLPRPRPRPYDKPRP — lower, -0.512
- RRIRTRPPRLPRPRPRPYCRPRP — within 0.2 log units, -0.149
- RRIRCRPPRLPRPRPRPPGLPRP — higher, 0.72
- RRIRTRPPRLPRPRPRPTFFPRP — within 0.2 log units, -0.11
- RRIRVRPPRLPRPRPRPYIKPRP — lower, -0.982
- RRIRYRPPRLPRPRPRPLFIPRP — lower, -0.683
- RRIRDRPPRLPRPRPRPLHCPRP — within 0.2 log units, -0.145
- RRIRKRPPRLPRPRPRPQPIPRP — higher, 0.424
- RRIRNRPPRLPRPRPRPSAQPRP — higher, 0.147
- RRIRPRPPRLPRPRPRPSSGPRP — lower, -0.494
- RRIRGRPPRLPRPRPRPHRLPRP — higher, 0.14
- RRIRWRPPRLPRPRPRPEMQPRP — higher, 1.12
- RRIRHRPPRLPRPRPRPLQTPRP — higher, 0.139
- RRIRPRPPRLPRPRPRPAWDPRP — higher, 0.431
- RRIRLRPPRLPRPRPRPGGRPRP — within 0.2 log units, -0.0451
- RRIRSRPPRLPRPRPRPDCTPRP — within 0.2 log units, 0.038
- RRIRIRPPRLPRPRPRPIGPPRP — within 0.2 log units, 0.0815
- RRIRRRPPRLPRPRPRPCQRPRP — within 0.2 log units, 0.0494
- RRIRLRPPRLPRPRPRPKYTPRP — lower, -0.61
- RRIRKRPPRLPRPRPRPLGFPRP — higher, 0.872
- RRIRARPPRLPRPRPRPFLWPRP — within 0.2 log units, -0.0716
- RRIRQRPPRLPRPRPRPNKRPRP — within 0.2 log units, 0.0702
- RRIRYRPPRLPRPRPRPAYYPRP — lower, -0.318
- RRIRTRPPRLPRPRPRPNICPRP — within 0.2 log units, 0.00449
- RRIRPRPPRLPRPRPRPMKPPRP — within 0.2 log units, 0.00333
- RRIRCRPPRLPRPRPRPAKLPRP — within 0.2 log units, 0.0355
- RRIRHRPPRLPRPRPRPKHFPRP — higher, 0.451
- RRIRTRPPRLPRPRPRPISWPRP — within 0.2 log units, -0.0406
- RRIRMRPPRLPRPRPRPRKSPRP — higher, 0.902
- RRIRERPPRLPRPRPRPAWQPRP — within 0.2 log units, -0.109
- RRIRDRPPRLPRPRPRPAQIPRP — higher, 0.263
- RRIRYRPPRLPRPRPRPSDFPRP — lower, -1.03
- RRIRQRPPRLPRPRPRPQDSPRP — within 0.2 log units, -0.297
- RRIRYRPPRLPRPRPRPKRIPRP — within 0.2 log units, -0.0123
- RRIRMRPPRLPRPRPRPLYRPRP — within 0.2 log units, -0.0998
- RRIRIRPPRLPRPRPRPKIAPRP — within 0.2 log units, 0.00729
- RRIRCRPPRLPRPRPRPLWGPRP — within 0.2 log units, -0.26
- RRIRRRPPRLPRPRPRPVEFPRP — within 0.2 log units, 0.0107
- RRIRMRPPRLPRPRPRPDALPRP — higher, 0.438
- RRIRARPPRLPRPRPRPTMHPRP — higher, 0.354
- RRIRGRPPRLPRPRPRPCYAPRP — higher, 0.128
- RRIRSRPPRLPRPRPRPIDTPRP — within 0.2 log units, -0.117
- RRIRFRPPRLPRPRPRPAVLPRP — higher, 0.107
- RRIRLRPPRLPRPRPRPGWIPRP — higher, 0.0964
- RRIRVRPPRLPRPRPRPDILPRP — higher, 0.3
- RRIRERPPRLPRPRPRPALGPRP — higher, 0.37
- RRIRFRPPRLPRPRPRPIDIPRP — within 0.2 log units, 0.0578
- RRIRCRPPRLPRPRPRPWYGPRP — lower, -0.49
- RRIRCRPPRLPRPRPRPMWHPRP — within 0.2 log units, -0.147
- RRIRGRPPRLPRPRPRPIPAPRP — higher, 0.913
- RRIRFRPPRLPRPRPRPVQSPRP — within 0.2 log units, -0.16
- RRIRERPPRLPRPRPRPRPQPRP — higher, 0.61
- RRIRIRPPRLPRPRPRPVGSPRP — higher, 0.36
- RRIRGRPPRLPRPRPRPRQLPRP — higher, 0.549
- RRIRERPPRLPRPRPRPMMRPRP — higher, 0.169
- RRIRFRPPRLPRPRPRPDWQPRP — within 0.2 log units, 0.0911
- RRIRTRPPRLPRPRPRPLNQPRP — lower, -0.417
- RRIRRRPPRLPRPRPRPDNPPRP — lower, -0.582
- RRIRARPPRLPRPRPRPQIAPRP — higher, 0.499
- RRIRVRPPRLPRPRPRPDINPRP — within 0.2 log units, -0.00784
- RRIRFRPPRLPRPRPRPPWCPRP — within 0.2 log units, 0.0236
- RRIRWRPPRLPRPRPRPTSMPRP — within 0.2 log units, -0.0665
- RRIRHRPPRLPRPRPRPMYRPRP — within 0.2 log units, -0.0948
- RRIRVRPPRLPRPRPRPRMYPRP — lower, -0.882
- RRIRMRPPRLPRPRPRPPVWPRP — higher, 0.825
- RRIRKRPPRLPRPRPRPMKLPRP — within 0.2 log units, 0.0347
- RRIRPRPPRLPRPRPRPDFFPRP — within 0.2 log units, -0.0853
- RRIRRRPPRLPRPRPRPAAIPRP — higher, 0.181
- RRIRKRPPRLPRPRPRPCNMPRP — within 0.2 log units, -0.0983
- RRIRYRPPRLPRPRPRPEGAPRP — higher, 0.295
- RRIRKRPPRLPRPRPRPWCDPRP — lower, -0.377
- RRIRVRPPRLPRPRPRPWNRPRP — within 0.2 log units, -0.183
- RRIRKRPPRLPRPRPRPYGGPRP — within 0.2 log units, 0.0335
- RRIRPRPPRLPRPRPRPAMNPRP — higher, 0.193
- RRIRFRPPRLPRPRPRPDCAPRP — within 0.2 log units, 0.0274
- RRIRVRPPRLPRPRPRPMVFPRP — within 0.2 log units, 0.0611
- RRIRYRPPRLPRPRPRPQVTPRP — within 0.2 log units, -0.00804
- RRIRARPPRLPRPRPRPRAQPRP — higher, 0.465
- RRIRCRPPRLPRPRPRPHKTPRP — within 0.2 log units, -0.0871
- RRIRERPPRLPRPRPRPSDIPRP — within 0.2 log units, -0.0101
- RRIRTRPPRLPRPRPRPFGLPRP — within 0.2 log units, 0.0236
- RRIRFRPPRLPRPRPRPPAKPRP — higher, 0.633
- RRIRHRPPRLPRPRPRPVADPRP — within 0.2 log units, -0.209
- RRIRWRPPRLPRPRPRPKPKPRP — within 0.2 log units, -0.0893
- RRIRHRPPRLPRPRPRPEIEPRP — within 0.2 log units, -0.0966
- RRIRVRPPRLPRPRPRPARQPRP — higher, 0.365
- RRIRNRPPRLPRPRPRPPWRPRP — higher, 0.437
- RRIRNRPPRLPRPRPRPINDPRP — within 0.2 log units, 0.0259
- RRIRQRPPRLPRPRPRPWVFPRP — within 0.2 log units, -0.227
- RRIRARPPRLPRPRPRPMPYPRP — the same, -0.105
- RRIRSRPPRLPRPRPRPPGQPRP — higher, 0.4
- RRIRNRPPRLPRPRPRPMDLPRP — within 0.2 log units, 0.00408
- RRIRHRPPRLPRPRPRPMGKPRP — within 0.2 log units, -0.189
